From a protein production outcome set (Wang et al. 2014) come the findings set out here.

The series is described as follows: label from the status in PepcDB records.

“MFKASHVLQGEDQTRSAAEFFPVISANYAVDEEAYLGELLQLADPGPDGIEAIRRNARALIETVRSRDNAVDTLDALLRQYSLDTQEGLMLMCLAEALLRVPDAATADALIRDKLSAADWQRHLGQSDNVLVNFAAWGLVMTGKVVNIDERTDGRAPSVISRLVQRSGEPVIRAAMNQAMKLMGKQFVLGRTISEALKNGRPCREQGYTYSFDMLGEAALTAADAEKYMADYRQAIDTVGAEPQVGPGPRPSISIKLSALHPRYEVAQRERVLSELFANVLELAVRARKLNVGITIDAEEADRLELSLELYEKLMRDPAIAGWGEFGLVIQAYSKRCLPVLVWLTLLGRELGARIPLRLVKGAYWDSEIKQCQVQGADGYPVYTRKEGTDTSYLACARYLLSEHTRGVIYPQFASHNAHTVTAILALADEARAAGGEERDFEFQRLHGMGDALYDTVIEKYRRNVRIYAPVGAHKDLLPYLVRRLLENGANSSFVHKLVDPRVPVETLIQHPVTQLRQFKTLANDRIPLPQAIFGAGRKNSQGINMNIQNQWNELELAYKPHLTRQWQAAPIVNGEKLSGPAHEVRCPYDLERLVGSVQYASAEQAGKALDVLQAAWPRWSATPVDERAGILERLADLLEAQRGELMALCTLEAGKSLQDGIDEIREAVDFCRYYAQQARQRLVREELRGPTGERNELFYEGRGIFACVSPWNFPLAIFLGQISAALVAGNTVLAKPAEQTSLIAARTVELMFEAGLPKDVIALLPGDGATLGGVFCRDARVAGVAFTGSTDTARIINRQLAEKPGAIATLIAETGGQNAMIVDSTALPEQVIKDAVQSAFTSAGQRCSALRVMYVQQDIAERVIELLKGAMAELKVGPTEVRVSDVGPVIDAEAKAGLEQHIAALKAAGKLIAETKVPGNLNGHFVAPVAFEISGIDELKKENFGPVLHVVRYAAQDLEKVVQAINATGFGLTMGVHSRNEETARRIEELARVGNLYINRNQIGAVVGVQPFGGHGLSGTGPKAGGPNYLLRFVSERTTSVNTTAVGGNA”: the protein production result is recorded as “failed”.

Regarding “MFKHCLICTDFSDGLQRLAGFVEELSLSGITKLIFLHTVSVWEDEHIADVDESKLKEAKTYLESLVGQVPPGIEVKVEVSSVRYVDLVNQLVEQEAIDLIINGMPVRSNLESKLFGSHTLSLAKSTKVPVMILRPQLVSTYTVEEMALRCQHLWRNLLVPYDASSAGNYLIERLKSALEKAPPGKVESCYFLSILEDGMRRPELLEIRRQEAEAKLAEIKQQFSPLVPNIITEVRHGSPVQEILDTAFVNDITAIAVASRRATLLDWTVPSLTDSILNRSWFPLLFFSPKG”, the protein production entry was “failed”. With “MFKIYNNGNPIPMGYSQAVENNVQITNFALFSAAAIGVELCLFDEQNQETRLPMVRTENVWHLAVTGVKTGTEYAFRIHGEFANPQKLILDPYAKAVNGKPDLSSEESRSWFLLSDNRDNAHLAPRAVVIS” the entry was “failed”; with “MFKKGVVPSQGLRIIIVGCGKVGRTLVEQLGKEGHDITIIDKNRERISQVSNIYDVMGIAGNGASYKILQEAGIDDADLIIAVTGSDELNLLCCTIATQVGNCAAIARVRTPEYSQEAKYLRDKLGLALIINPELEAAIEMAHILHLPSSLEVTNFAHGQAQLIKYEIPEGSILDGTKLMDLGTRHHANILIGAVERDDEVTIPSGDFVLRKGDKLSFVGERRHTKEFFSHIGVNTHSVKNTLIIGGGKAAYYLAKQLISRGIKVKIIENSFERCEELSILLPDAVIINGDGTEQALLKEEGIETCQSFVPLTGIDEENIMLTLYAKQVSNAKVITKLNRITFTNVINSLDLGSVISPKYITSEAIIAYVRAKKNSMNCNIETLYHMYDSRVEAIEFFVSENSNVTDIPLRDLKLKKHLLICFINRNGKIIIPTGNDCIQKNDTVMIITTNTGFTNLQDIME”, “failed”; with “MFKKLLHSLFAGLTFMAAVAAVPAHAQEADAQTTVKTAVDDVLATIKGDSDLRSGNMQKVFQLVDQKIVPRADFKRTTQIAMGRFWSQATPEQQQQIQDGFKTLLVRTYAGALANVRNQTVSYKPFRAAADDTDVVVRSTVNNNGEPVALDYRMEKSANGWKVYDINISGLWLSETYKNQFAEVISKRGGVSGLVQFLDERNAQLAKGPAKLEHHHHHH”, “not failed”.

For “MFKLHILFALSAPQRIAFWVWRGLFVVALAAAGIGSTRAQSYSFRDYAQSDGLQGMSITGLVEDRRGVVWVATELALHRFERDRFIPVGQDQGLDARYTRALTLDHAGRLWVATANGVFVRNGEQFVQVLDHGKRIRADAGNVIAAYRTGVAVASNGALLALTPEADGHWQVQPLPVRTADGKLREPGTTLLADGQFLWVPCDGGVCRLDARGTVVEALSEADGVPARRWRVIFRERGGRLWLRGGGTIVSRAPGGARFTEHPANPENSFNTLSGSTTMVEDARGRMLTRSDHGLVRWEGTHWTDIGADQGLQLNALVGPLLLQSNGTLWLGTRGMGLQRVLGYDSIEHLTEAQGMPPAPTWTMQRLPNGMLAVGADGGASLLKRNATHAQPWLLEDGAVLSQALNITVAPDGAAWVSYYSGAIARRDPLTGVTSRVMDLPIAGYKLLFDKAGTVWIATPRGLVRGQAAPPYALAPDPAMEGKFIGDIDFDRQGRLWAATRDGLYRRNGTTWVKIPVRGSLPSQDMLQIDFAPNGEIWLSLRDTGLWHGRLQGDGSLLLQAVDDPLISRIMPYILRHDRKGRLWVGSSQGLDLYQNGHWSRITRAEGLLWDDMSSNAFLEDDDGSIWIGSSRGLSHLRDPQRLFAAQPLRVDIAEVRRGAQIVHSGASIAWSETPLEIELSTPGVEGGANRISFRYRVQARWTTSSLSHLTYPLLPPGNYTLEVQALDAYQRSASPIARFQFVIRPPWWRSIAAIAGYLLLAVVAVIALLRWRTAKLLRRKHELEQLVAERTAELEQDKRDLEAARAELSLKATHDELTGLLNRAGILAALREMLLHAARSGRPLAVVLIDLDHFKLVNDQHGHLAGDAVLAGVGHRMDTLVRGDDRIGRYGGEELLALLPGLTPGATHRLDAMHRGICGDYPVDDGWLHVTCSIGVAWFQAGETLEQLLARADAALYRAKRSGRNRIDYDHVPLDRLGQVLPLDPQQRE”, the protein production entry is given as “failed”.

In the case of “MFKNLIWLKEVDSTQERLKEWNVSYGTALVADRQTKGRGRLGRKWLSQEGGLYFSFLLNPKEFENLLQLPLVLGLSVSEALEEITEIPFSLKWPNDVYFQEKKVSGVLCELSKDKLIVGIGINVNQREIPEEIKDRATTLYEITGKDWDRKEVLLKVLKRISENLKKFKEKSFKEFKGKIESKMLYLGEEVKLLGEGKITGKLVGLSEKGGALILTEEGIKEILSGEFSLRRS”, the protein production result is “not failed”. With “MFKNNDFIYIEYTAKIKDTGEIVDTTNEEEAKKANIYDETRNYGPRLVILGENRLIKGLEEALYNFNLNEEKTIEIPPEKAYGERDNSKIKIVPLGELRRQGITAVPNRVLRLSDGSLAVIRSVSGGRVVLDLNHPLAGRTLVYNVKVVKVLNNAKDKIMALIERRFSSKYANGFNVELDDGKKSVRITIPKDLYLVEDLQINVYSLAYEIVNYVLADYTVEVLQQYNKSTFSSS” the entry was “failed”; with “MFKNVKKSVTRTIASAMLLILLLSVATTGFAIFTLASSLNDAEAVNVAGSMRMQSYRLAHDIQIRSVDYSSHIDAFEHSIYSSSMKALQHWSVPEDITHDYYRLIMRWHELKSVLRGEDPSQYQLLVAGFVQQIDDFVFKLQNFSEQKLINLAWIGGLGLGGILCASMFVVHFIRLEVVRPLRALVFASERIKNRSFDINLAVSSDNEMGILTRTFNRMATDLGKLYRGLEQAVDEKTRKLQHANQSLEVLYDSSKELTASRINQDNFQAILKHIASLEGIKAVKLEIEQLGEPNWILTEGEECCHDCDDECHAEPLTLDGEHLGSLYWKAGLPCPNETLIDNFVQILSRAVYYNRAQRQAEQILLMEERATIARELHDSLAQALSYLKIQVALLKRSVKNLPDEKAIAQANQVIAELDTGLSAAYTQLRELLTTFRLTIKEGSFGQALQEMVETLNEQTTAEITLKNRLSSTELDAHQQVHLLQLIREAALNAIKHAQADHIHIQCLDCDGKVTVTVSDDGVGFEHQDEKINHYGMTIMQERAARLHADLQIEASINKGCTVKLEFQHSKEVNFDSV”, “failed”; with “MFLNRKVELSLLENLHAEGKPKLILLYGKRRVGKTELLNEFARRHRALYLVARQEAYEGQLKKMSSEIAEFFDDDVLRHSPFQNYDALFIYLAQKETPVLFDEFPYLVEANRDLPSILQEYWDRYFSKKKTFLVLCGSSIAMMESLLGYKSPLYGRRTEQILLEPLKFREACEFFPQLEQEDKVLAYAVLGGTPAYLLEFDYGKPLLENIRDRILQKNTFLYQDTMFVLQQELTEPRVYYSIINSIAKGNTRLGEIMNDTGLEKSKITKYLSVLKDLHIIERRVPVTEKSPESSKKGIYLLKDNYFKFWFRFVFENAEYIEQGRQEKLIGDKISPVLNNFAGFAYEEIVLEYLKSSPGFPDYIFGRWWDKEEEIDVVGLDSSQNRIIFGEVKWKALTEKEARQTLNQLVEKSVEVKWGENLKSGEIQEGPEKKYMLVGKKVGGKKRLLGDGYLVLELDDLVEN”, “failed”. For the sequence “MFLNYFALGVLIFVFLVIFYGIIAIHDIPYLIAKKRNHPHADAIHTAGWVSLFTLHVIWPFLWIWATLYQPERGWGMQSHVASQEKATDPEIAALSDRISRLEHQLAAEKKTDYSTFPEI”, the protein production result was “failed”. In the case of “MFMREIELRGHIIDSLILPKVFDKILDMGGDYKVLEFEIGKRKTDPSYAKILVIGRDERHVDEILNELRDLGAEIPEIEEVELQPAEKDMVLPEGFYSTTNHKTFIRFKGKWIEVENQKMDGAIVVYPDEMRAEVKTIRNIKKGDLVVVGHKGVRVIPPEKPREGGGLFEFMKSDASSEKPKETIIRRIAKEMYEIREKYRKTGKGGIVVVGGPAIIHTGAGWALAKLIRMGYVQALFAGNALATHDIESVLYGTSLGVDLKTGKSVPGGHSHHLRAINTIMRAGSIKDAVEQGILKEGVMYECIKNNIPYVLAGSIRDDGPLPDVITDVVKAQEKMRELLKGKDMVLMLSTMLHSIATGNLLPSWVKTICVDINPAVVTKLMDRGTSQALGIVTDVGVFLPMLVEELEKLEKEKEKSEKREELEHHHHHH”, the protein production entry is “not failed”.

With “MFNIADGGFTELHTLWLNEEKAAVPGREYEIWHRRHDYWLLAGIVTHGYGRWQDIQNDIRFAIINEPFKMDVGKGNFLEIKNKFLARRFKLLEQALVIEEQLRRAAYLNLAQDPSHPAMSLNARFAEVECLAESHQHLSKESLAGNKPANAVLHKVLNQLEELLSDMKSDVSRLPATLARIPPVAQRLQMSERSILSRLA”, the protein production result is listed as “failed”. With “MFNPNVAVKNIVTQNGADSIISLIARILMAYIFLVAGWGKITAYSATVGYMEAMGVPGALLPLTILVEFGGGLALLFGFQARFAAFGLGIFSLLTAFIFHEGTDQAQAINFMKNFAMAGGLFFLMLHGAGKISLDAAIEK”, the protein production result is given as “failed”. As for “MFPILLLAFIFVPIIEIGLFIQVGGFLGLWPTIALVLITAFVGASLVRSQGIQTLMSVQGRLEQGEIPAQQIFEGVMLAVAGVLLLTPGFMTDALGMVVLLPAPRAAIAKYLMSKMVVKTMHGGGFQGGFSNQGPFEQDPFHRDPFDSRSDNGNTFEGEYERKDDDDRNKLN”, the protein production result is reported as “failed”.

In the case of “MFPLNFHYEDVSRQDPLLKPNHANVMEVPGSCEIRVVPKAPYNFIIKNGKLAMEIPRGQKFIQTQRGSTGKSFRSNPFLGSNKDKGYVSDLARQSTLRGHGMSNFSVRISTVMSLLDFPVEIRKNSIQFSMETEFCEFSPELEDHFEIFEHIRGFNVTIITSANTQDETLPLWSGFLQKDEGETQ”, the protein production entry is “failed”.
